Patent publication US11278600B2, “Human alpha-galactosidase variants” (Codexis, Inc., priority 2014, dated 2022)

Key:
Type in all cases: biochemical
[1] = HTP-analysis of supernatants pretreated with acid (MUGal hydrolysis); conditions: for Relative Activity of GLA Variants After Challenge at pH 3.3: activity of the variant/activity of Rd3BB (SEQ ID NO: 13), yeast supernatant
Procedure, shortened: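 GLA variants were secreted from INVSc1 yeast grown 66-84 h at 30° C. in SD-Ura with 2% glucose; supernatants were mixed with McIlvaine buffer pH 3.3-4.3 and held at 37° C. for 1-3 h. Residual activity on MUGal at pH 4.8 was then measured by fluorescence.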

[2] = HTP-analysis of yeast culture supernatants, no challenge (MUGal hydrolysis)
Procedure, shortened: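 Activity read as 4-methylumbelliferyl α-D-galactopyranoside hydrolysis: fluorescence (355/448 nm) after sodium carbonate stop, following 30-180 min at 37° C with 2 mM MUGal stock at pH 4.6–4.8. Enzyme source is unchallenged culture supernatant of INVSc1 yeast expressing GLA variants, grown 66-84 h at 30° C.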

[3] = HTP-analysis of supernatants pretreated with base (MUGal hydrolysis); conditions: for Relative Activity of GLA Variants After Challenge at pH 9.7: activity of the variant/activity of Rd3BB (SEQ ID NO: 13), yeast supernatant
Procedure, shortened: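 GLA variants were secreted by transformed INVSc1 yeast grown 66-84 h at 30° C. Supernatants were exposed to neutral-to-basic buffers (pH 7.0-9.7) at 37° C for 1-18 h, then assayed with MUGal in acidic citrate/McIlvaine buffer, with fluorescence read after quenching.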

[4] = activity of the variant/activity of Rd3BB (SEQ ID NO: 13), yeast supernatant

B1: 627 (protein)
chain: LDNGLARTPTMGWLHWERFMCNLDCQEEPDSCISEKLFMEMAERMVNEGWKDAGYEYLCIDDCWMAPQRDSEGRLQADPQRFPHGIRQLANHVHSKGLKLGIYADVGNKTCAGFPGSFGYYDIDAQTFADWGVDLLKFDGCYCDSLENLADGYKHMSLALNRTGRPIVYSCEWPLYMWPFQKPNYTEIRQYCNHWRNFADIDDSWASIKSILDWTSRNQERIVDVAGPGGWNDPDMLVIGNFGLSWDQQVTQMALWAIWAAPLFMSNDLRAISPQAKALLQDKDVIAINQDPLGKQGYQLRKGDNFEVWERPLSGDAWAVAIINRQEIGGPRSYTIPVASLGKGVACNPACFITQLLPVKRQLGFYNWTSRLKSHINPTGTVLLQLENTHQTSLKDLL
modifications: Synthetic Polypeptide sequence of Variant No. 627 of mature Human GLA
For B1, which “Relative Activity of GLA Variants After Challenge at pH 3.3” value (“Relative Activity … at pH 3.3” for short) [1] is on record?
The value was “− (− = <1.5 relative activity to Rd3BB (SEQ ID NO: 13))”.

And the “Relative Activity of GLA Variants After No Challenge (NC)” value [2, 4]?
Its value is “+ (+ = 1.5 to 5 relative activity over Rd3BB (SEQ ID NO: 13))”.

What about the “Relative Activity of GLA Variants After Challenge at pH 9.7” value (shortened to “Relative Activity … at pH 9.7”) [3] of the same molecule?
Its value is “++ (++ = >5 to 10 relative activity over Rd3BB (SEQ ID NO: 13))”.

B2: 628 (protein)
chain: LDNGLARTPTMGWLHWERFMCNLDCQEEPDSCISEKLFMEMAERMVNEGWKDAGYEYLCIDDCWMAPQRDSEGRLQADPQRFPHGIRQLANHVHSKGLKLGIYADVGNKTCAGFPGSFGYYDIDAQTFADWGVDLLKFDGCYCDSLENLADGYKHMSLALNRTGRPIVYSCEWPLYMWPFQKPNYTEIRQYCNHWRNFADIDDSWASIKSILDWTSRNQERIVDVAGPGGWNDPDMLVIGNFGLSWDQQVTQMALWAIMAAPLFMSNDLRAISPQAKALLQDKDVIAINQDPLGKQGYQLRKGDNFEVWERPLSGDAWAVAIINRQEIGGPRSYTIPVASLGKGVACNPACFITQLLPVKRQLGFYNWTSRLKSHINPTGTVLLQLENTHQMSLKDLL
modifications: Synthetic Polypeptide sequence of Variant No. 628 of mature Human GLA
With B2 as the molecule, how does the “Relative Activity … at pH 3.3” value [1] read?
Its value is “+ (+ = 1.5 to 5 relative activity over Rd3BB (SEQ ID NO: 13))”.

And the “Relative Activity of GLA Variants After No Challenge (NC)” value [2, 4]?
Its value is “+ (+ = 1.5 to 5 relative activity over Rd3BB (SEQ ID NO: 13))”.

And the “Relative Activity … at pH 9.7” value [3]?
The value was “++ (++ = >5 to 10 relative activity over Rd3BB (SEQ ID NO: 13))”.

B3: 629 (protein)
chain: LDNGLARTPTMGWLHWERFMCNLDCQEEPDSCISEKLFMEMAERMVTEGWKDAGYEYLCIDDCWMAPQRDSEGRLQADPQRFPHGIRQLANYVHSKGLKLGIYADVGNKTCAGFPGSFGYYDIDAQTFADWGVDLLKFDGCYCDSLENLADGYKHMSLALNRTGRPIVYSCEWPLYMWPFQKPNYTEIRQYCNHWRNFADIDDSWASIKSILDWTSRNQERIVDVAGPGGWNDPDMLVIGNFGLSWDQQVTQMALWAIMAAPLFMSNDLRAISPQAKALLQDKDVIAINQDPLGKQGYQLRKGDNFEVWERPLSGDAWAVAIINRQEIGGPRSYTIPVASLGKGVACNPACFITQLLPVKRQLGFYNWTSRLKSHINPTGTVLLQLENTQQMSLKDLL
modifications: Synthetic Polypeptide sequence of Variant No. 629 of mature Human GLA
What does the source list for B3?
Relative Activity of GLA Variants After Challenge at pH 3.3 [1]: ++ (++ = >5 to 10 relative activity over Rd3BB (SEQ ID NO: 13)); Relative Activity of GLA Variants After No Challenge (NC) [2, 4]: + (+ = 1.5 to 5 relative activity over Rd3BB (SEQ ID NO: 13)); Relative Activity of GLA Variants After Challenge at pH 9.7 [3]: ++ (++ = >5 to 10 relative activity over Rd3BB (SEQ ID NO: 13))

B4: 609 (protein)
chain: LDNGLARTPTMGWLHWERFMCNLDCQEEPDSCISEKLFMEMAERMVSEGWKDAGYEYLCIDDCWMAPQRDSEGRLQADPQRFPHGIRQLANYVHSKGLKLGIYADVGNKTCAGFPGSFGYYDIDAQTFADWGVDLLKFDGCYCDSLENLADGYKHMSLALNRTGRPIVYSCEWPLYMWPFQKPNYTEIRQYCNHWRNFADIDDSWASIKSILDWTSRNQERIVDVAGPGGWNDPDMLVIGNFGLSWDQQVTQMALWAIMAAPLFMSNDLRHISPQAKALLQDKDVIAINQDPLGKQGYQLRKGDNFEVWERPLSGDAWAVAIINRQEIGGPRSYTIPVASLGKGVACNPACFITQLLPVKRQLGFYNWTSRLKSHINPTGTVLLQLENTMQMSLKDLL
modifications: Synthetic Polypeptide sequence of Variant No. 609 of mature Human GLA
What does the source list for B4?
Relative Activity of GLA Variants After Challenge at pH 3.3 [1]: ++ (++ = >5 to 10 relative activity over Rd3BB (SEQ ID NO: 13)); Relative Activity of GLA Variants After No Challenge (NC) [2, 4]: + (+ = 1.5 to 5 relative activity over Rd3BB (SEQ ID NO: 13)); Relative Activity of GLA Variants After Challenge at pH 9.7 [3]: ++ (++ = >5 to 10 relative activity over Rd3BB (SEQ ID NO: 13))

B5: 630 (protein)
chain: LDNGLARTPTMGWLHWERFMCNLDCQEEPDSCISEKLFMEMAERMVTEGWKDAGYEYLCIDDCWMAPQRDSEGRLQADPQRFPHGIRQLANHVHSKGLKLGIYADVGNKTCAGFPGSFGYYDIDAQTFADWGVDLLKFDGCYCDSLENLADGYKHMSLALNRTGRPIVYSCEWPLYMWPFQKPNYTEIRQYCNHWRNFADIDDSWASIKSILDWTSRNQERIVDVAGPGGWNDPDMLVIGNFGLSWDQQVTQMALWAIWAAPLFMSNDLRAISPQAKALLQDKDVIAINQDPLGKQGYQLRKGDNFEVWERPLSGDAWAVAIINRQEIGGPRSYTIPVASLGKGVACNPACFITQLLPVKRQLGFYNWTSRLKSHINPTGTVLLQLENTHQMSLKDLL
modifications: Synthetic Polypeptide sequence of Variant No. 630 of mature Human GLA
What does the source list for B5?
Relative Activity of GLA Variants After Challenge at pH 3.3 [1]: − (− = <1.5 relative activity to Rd3BB (SEQ ID NO: 13)); Relative Activity of GLA Variants After No Challenge (NC) [2, 4]: + (+ = 1.5 to 5 relative activity over Rd3BB (SEQ ID NO: 13)); Relative Activity of GLA Variants After Challenge at pH 9.7 [3]: ++ (++ = >5 to 10 relative activity over Rd3BB (SEQ ID NO: 13))

B6: 631 (protein)
chain: LDNGLARTPTMGWLHWERFMCNLDCQEEPDSCISEKLFMEMAERMVTEGWKDAGYEYLCIDDCWMAPQRDSEGRLQADPQRFPHGIRQLANHVHSKGLKLGIYADVGNKTCAGFPGSFGYYDIDAQTFADWGVDLLKFDGCYCDSLENLADGYKHMSLALNRTGRPIVYSCEWPLYMWPFQKPNYTEIRQYCNHWRNFADIDDSWASIKSILDWTSRNQERIVDVAGPGGWNDPDMLVIGNFGLSWDQQVTQMALWAIMAAPLFMSNDLRAISPQAKALLQDKDVIAINQDPLGKQGYQLRKGDNFEVWERPLSGDAWAVAIINRQEIGGPRSYTIPVASLGKGVACNPACFITQLLPVKRQLGFYNWTSRLKSHINPTGTVLLQLENTQQMSLKDLL
modifications: Synthetic Polypeptide sequence of Variant No. 631 of mature Human GLA
For B6, which “Relative Activity … at pH 3.3” value [1] is on record?
Its value is “+ (+ = 1.5 to 5 relative activity over Rd3BB (SEQ ID NO: 13))”.

And the “Relative Activity of GLA Variants After No Challenge (NC)” value [2, 4]?
The value was “+ (+ = 1.5 to 5 relative activity over Rd3BB (SEQ ID NO: 13))”.

And the “Relative Activity … at pH 9.7” value [3]?
The value was “++ (++ = >5 to 10 relative activity over Rd3BB (SEQ ID NO: 13))”.

B7: 632 (protein)
chain: LDNGLARTPTMGWLHWERFMCNLDCQEEPDSCISEKLFMEMAERMVNEGWKDAGYEYLCIDDCWMAPQRDSEGRLQADPQRFPHGIRQLANHVHSKGLKLGIYADVGNKTCAGFPGSFGYYDIDAQTFADWGVDLLKFDGCYCDSLENLADGYKHMSLALNRTGRPIVYSCEWPLYMWPFQKPNYTEIRQYCNHWRNFADIDDSWASIKSILDWTSRNQERIVDVAGPGGWNDPDMLVIGNFGLSWDQQVTQMALWAIMAAPLFMSNDLRAISPQAKALLQDKDVIAINQDPLGKQGYQLRKGDNFEVWERPLSGDAWAVAIINRQEIGGPRSYTIPVASLGKGVACNPACFITQLLPVKRQLGFYNWTSRLKSHINPTGTVLLQLENTMQTSLKDLL
modifications: Synthetic Polypeptide sequence of Variant No. 632 of mature Human GLA
Which “Relative Activity … at pH 3.3” value [1] does the source give for B7 here?
Its value is “++ (++ = >5 to 10 relative activity over Rd3BB (SEQ ID NO: 13))”.

And the “Relative Activity of GLA Variants After No Challenge (NC)” value [2, 4]?
The value was “+ (+ = 1.5 to 5 relative activity over Rd3BB (SEQ ID NO: 13))”.

And the “Relative Activity … at pH 9.7” value [3]?
The value was “++ (++ = >5 to 10 relative activity over Rd3BB (SEQ ID NO: 13))”.

B8: 660 (protein)
chain: LDNGLARTPTMGWLHWERFMCNLDCQEEPDSCISEKLFEEMAERMVTEGWKDAGYEYLCIDDCWMAPQRDSEGRLQADPQRFPHGIRQLANHVHSKGLKLGIYADVGNKTCAGFPGSFGYYDIDAQTFADWGVDLLKFDGCYCDSLENLADGYKHMSLALNRTGRPIVYSCEWPLYMWPFQKPNYTEIRQYCNHWRNFADIDDSWASIKSILDWTSRNQERIVDVAGPGGWNDPDMLVIGNFGLSWDQQVTQMALWAIMAGPLFMSNDLRAISPQAKALLQDKDVIAINQDPLGKQGYQLRKGDLFEVWERPLSGDAWAVAIINRQEIGGPRSYTIPVASLGKGVACNPACFITQLLPVKRQLGFYNWTSRLKSHINPTGTVLLQLENTMQTSLKDLL
modifications: Synthetic Polypeptide sequence of Variant No. 660 of mature Human GLA
With B8 as the molecule, how does the “Relative Activity of GLA Variants After Challenge at pH 3.5” value ([1]; activity of the variant/activity of Rd7BB (SEQ ID NO: 44), challenge at pH 3.5) read?
Its value is “+ (>0.5 to 1.5 relative activity over Rd7BB (SEQ ID NO: 44))”.

And the “Relative Activity of GLA Variants After No Challenge (NC)” value ([2]; activity of the variant/activity of Rd7BB (SEQ ID NO: 44))?
Its value is “+ (>0.5 to 1.5 relative activity over Rd7BB (SEQ ID NO: 44))”.

What about the “Relative Activity of GLA Variants After Challenge at pH 7.5” value ([3]; activity of the variant/activity of Rd7BB (SEQ ID NO: 44), challenge at pH 7.5) of the same molecule?
The value was “− (<0.5 relative activity to Rd7BB (SEQ ID NO: 44))”.
